Target: CXCR4 cognate ligand SDF1a (or CCL12) (UniProt P48061)
Assay: ELISA, water-soluble CXCR4 with CCL12 (SDF1a), assay concentrations 50 nM to 10 uM

Chain of CXCR4 cognate ligand SDF1a (or CCL12) (P48061 22-89 limits assumed): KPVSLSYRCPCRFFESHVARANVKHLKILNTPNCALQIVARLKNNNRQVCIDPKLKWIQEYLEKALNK

For “water-soluble CXCR4-QTY protein, produced in E. coli BL21 (DE3) and purified with 1D4 rho-tag monoclonal antibody (receptor)”, the Kd was 80 nM.
